B1: Retinoblastoma-related protein 1 (Arabidopsis thaliana (Mouse-ear cress)), Q9LKZ3 (parent)
chain: MEEVQPPVTPPIEPNGKRSEASLLDICEKVLSLDGSTCDEALKLFTETKRILSASMSNIGSGTREEVERFWFAFILYSVKRLSVRKEADGLSVSGDNEFNLCQILRALKLNIVDFFKELPQFVVKAGSVLGELYGADWENRLQAKEVQANFVHLSLLSKYYKRGFREFFLTYDANAEKNSANSSTYLLDSYRFGWLLFLALRNHAFSRFKDLVTCSNGVVSILAILIIHVPCRFRNFSIQDSSRFVKKGDKGVDLVASLCKIYDASEDELRIVIDKANNLVETILKKKPSPASECQTDKLDNIDPDGLTYFEDLLEETSISTSLITLEKDYYDGKGELDERVFINEEDSLLGSGSLSAGAVNITGVKRKIDALSSPARTFISPLSPHKSPAAKTNGISGATKLAATPVSTAMTTAKWLRTVISPLLPKPSPGLEHFLKSCDRDITNDVTRRAHIILEAIFPNSSLGAQCGGGSLQAVDLMDDIWAEQRRLEACKLYYRVLEAMCKAEAQILHANNLNSLLTNERFHRCMLACSAELVLATHKTITMLFPAVLERTGITAFDLSKVIESFIRHEDSLPRELRRHLNSLEERLLESMVWEKGSSMYNSLIVARPSLALEINQLGLLAEPMPSLDAIAALINFSDGANHASSVQKHETCPGQNGGIRSPKRLCTDYRSILVERNSFTSPVKDRLLALGNVKSKMLPPPLQSAFASPTRPNPGGGGETCAETGINIFFTKINKLAAVRINGMVERLQLSQQIRESVYCFFQHVLAQRTSLLFSRHIDQIILCCFYGVAKISQMSLTFREIIYNYRKQPQCKPLVFRSVYVDALQCRRQGRIGPDHVDIITFYNEIFIPAVKPLLVELGPVRNDRAVEANNKPEGQCPGSPKVSVFPSVPDMSPKKVSAVHNVYVSPLRGSKMDALISHSTKSYYACVGESTHAYQSPSKDLSAINNRLNNSSSNRKRTLNFDAEAGMVSDSMVANSLNLQNQNQNQNGSDASSSGGAAPLKTEPTDS
partner: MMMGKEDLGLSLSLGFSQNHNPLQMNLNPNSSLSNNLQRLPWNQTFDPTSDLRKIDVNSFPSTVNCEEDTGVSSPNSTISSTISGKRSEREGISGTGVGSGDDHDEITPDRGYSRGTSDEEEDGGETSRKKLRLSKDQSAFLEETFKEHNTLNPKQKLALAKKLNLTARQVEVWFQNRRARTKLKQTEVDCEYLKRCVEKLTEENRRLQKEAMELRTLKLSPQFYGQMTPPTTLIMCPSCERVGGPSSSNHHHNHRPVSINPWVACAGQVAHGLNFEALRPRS

Variants of: B1
Details: with hat2_arath HAT2, P46601

Row | Variant | effect of a mutation on the interaction
1 | N849F | disrupting interaction strength
